Data as given in US10005846 (LIFEARC, dated 2018).
Where a chain is given by its changes, count along the chain named. Values belong to the binder of their own block, whether it stands above or below them.

Columns and labels:
[1] = molecular target: T1, human transglutaminase type 2 (TG2) (human, UniProt P21980 1-687); test: cell-based or functional assay
T1 sequence: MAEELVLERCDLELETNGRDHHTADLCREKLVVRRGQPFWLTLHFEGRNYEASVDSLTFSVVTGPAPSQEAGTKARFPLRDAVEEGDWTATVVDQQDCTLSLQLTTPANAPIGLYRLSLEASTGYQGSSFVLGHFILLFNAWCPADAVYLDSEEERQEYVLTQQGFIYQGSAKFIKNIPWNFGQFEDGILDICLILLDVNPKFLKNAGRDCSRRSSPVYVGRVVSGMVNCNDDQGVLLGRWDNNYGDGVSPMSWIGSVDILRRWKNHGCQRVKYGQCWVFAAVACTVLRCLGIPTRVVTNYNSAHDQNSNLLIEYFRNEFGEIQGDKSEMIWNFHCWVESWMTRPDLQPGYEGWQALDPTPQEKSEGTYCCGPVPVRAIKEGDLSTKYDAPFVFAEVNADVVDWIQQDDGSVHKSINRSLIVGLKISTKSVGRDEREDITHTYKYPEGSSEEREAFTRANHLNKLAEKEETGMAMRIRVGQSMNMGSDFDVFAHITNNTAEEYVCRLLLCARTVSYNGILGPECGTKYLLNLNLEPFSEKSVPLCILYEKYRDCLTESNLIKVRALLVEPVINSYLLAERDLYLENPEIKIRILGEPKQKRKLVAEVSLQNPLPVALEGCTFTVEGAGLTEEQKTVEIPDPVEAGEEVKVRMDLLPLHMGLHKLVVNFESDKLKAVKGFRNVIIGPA

cynomolgus monkey TG2 [2] = molecular target: T2, cynomolgus monkey TG2 (cynomolgus monkey, UniProt A0A2K5VXI8 1-687); test: cell-based or functional assay
T2 sequence: T1 sequence with E4D, Q157R, N177S, H413S, I421T, Y528H, V542I

[3] = molecular target: T1, human transglutaminase type 2 (TG2); test: ELISA on immobilised human TG2; r2 0.9985; EC50 95% confidence range 0.3927 to 0.4971 [panel A]
Procedure: (§1) Antibody binding to human and cynomolgus monkey TG2 was determined in an ELISA assay. Clear polystyrene "Maxisorp" 96-well plates (Nunc) were coated with 50 ng purified human or cynomogulus monkey TG2 in 50 µl 0.05 M carbonate-bicarbonate buffer pH 9.6 at 4° C. overnight. Control wells were coated with 50 µl 100 µg/ml bovine serum albumin (BSA). Plates were washed 3× with 300 µl phosphate-buffered saline pH7.4 (PBS) containing 0.1% Tween 20 (PBST) and blocked with 300 µl 3% w/v Marvel skimmed milk in PBS for 1 hour at room temperature. After 3× wash with PBST, 50 µl protein-A purified chimeric or humanised anti-TG2 antibodies or human IgG1 kappa […] control antibody or CUB7402 (Abcam) were serially diluted 4-fold from a top concentration of 50 nM in PBS, and added to the plate in duplicate. […] After 3× washes with PBST, the plates were developed with 50 µl TMB substrate (Sigma) for 5 min at room temperature before stopping the reaction with 25 µl 0.5M H2SO4 and reading absorbance at 450 nm in a microtiter plate reader (BioTek EL808). Dose response curves were analysed and EC50 values and other statistical parameters determined using a 4-parameter logistical fit of the data (GraphPad Prism).

cynomolgus monkey TG2 [4] = molecular target: T2, cynomolgus monkey TG2; test: ELISA on immobilised cynomolgus monkey TG2; r2 0.9993; EC50 95% confidence range 0.3887 to 0.4489 [panel A]
Procedure: as §1

[5] = molecular target: T1, human transglutaminase type 2 (TG2); test: SPR (Biacore T200), antibody captured on anti-human IgG1 Fc chip, TG2 injected; calcium condition not marked in the row
Procedure: (§2) Recombinant cynomolgus monkey TG2 was obtained from Trenzyme. Surface plasmon resonance (SPR) was measured on a Biacore T200 instrument (GE Healthcare). CM5 chips (GE Healthcare cat. no.: BR-1006-68) were coated with monoclonal mouse anti-human IgG1 (Fc) (MAH) antibody (GE Healthcare cat. no.: BR-1008-39) by amine-coupling as described in the manufacturers instructions. HBS-EP+ buffer (0.01 M HEPES, 0.15 M NaCl, 3 mM EDTA, 0.05% v/v Surfactant P20) and HBS-P+ buffer (0.01 M HEPES, 0.15 M NaCl, 0.05% Surfactant P20) were purchased from GE Healthcare as 10× stocks (cat. nos.: BR-1006-69 and BR-1006-71). Calcium Chloride solution was obtained from Sigma Aldrich (cat. no.:21115).
(§3) The method employed to determine the affinity of the anti-TG2 antibodies involved the capture of the chimeric or humanised antibodies on a MAH coated CM5 chip, followed by the injection of a series of TG2 samples in running buffer. The running buffer was 1×HBS-P+ containing 1 mM CaCl_2, or 1×HBS-EP+ for calcium-free experiments. Antibody capture was carried out for a contact time of 120 seconds at a flow rate of 10 μl/min resulting in the capture of approximately 40-80 RU. TG2 was injected over the immobilised antibody at concentrations ranging from 25 nM to 400 nM with a contact time up to 600 seconds at a flow rate of 30 μl/min. Dissociation of TG2 was typically measured for up to 5400 seconds (1.5 hours). Regeneration of the chip was then performed using 3 M MgCl_2, for a contact time of 60 seconds at a flow rate of […], followed by a 300 s stabilisation period before the next sample. For each of human and cynomolgus monkey TG2, at least 5 injections at a variety of concentrations were performed in at least two separate experiments.
(§4) Kinetic data were exported from the Biacore T200 Evaluation Software and analysed using GraphPad Prism, where the association phases and dissociation phases were analysed separately using a one phase association model and one-phase exponential decay model respectively. Association rates ($kon$) were calculated for each curve individually, and dissociation rates ($koff$) values from the long dissociation phase data collected. Where $koff$ values were calculated to be $<1\times10^-5$ s^-1, values were set at 1×10^-5 for analysis, as rates slower than this could not be estimated accurately.

cynomolgus monkey TG2 [6] = molecular target: T2, cynomolgus monkey TG2; test: as above
Procedure: as §2, §3, §4

[7] = molecular target: T1, human transglutaminase type 2 (TG2); test: cell-based or functional assay; remark: listed apart in the source
[8] = molecular target: T1, human transglutaminase type 2 (TG2); test: cell-based or functional assay; remark: listed apart in the source
[9] = molecular target: T1, human transglutaminase type 2 (TG2); test: anti-huTG2 ELISA of HEK293F supernatants
Procedure: Supernatants from HEK293F cells co-transfected with different combinations of humanised AB1 light chains and AB1 heavy chain vectors were assayed in an anti-human IgG ELISA to determine concentration and in an anti huTG2 ELISA. Each supernatant was assayed in triplicate and $IC50$'s determined.
HEK 293F cells were co-transfected with combinations of different humanised light chain vectors in association with different humanised heavy chain vectors. Recombinant human TG2 was used to measure antibody binding by ELISA. […] A similar approach was used to identify optimal pairs of humanized BB7 heavy and light chains, and humanised DC1 heavy and light chains.

binding result [9]: binds
B5: VHc/RKJ (antibody, V domains shown)
VH: EVQLVESGGGLVKPGGSLKLSCAASGFTLSSSAMSWVRQTPDRRLEWVATISVGGGKTYYPDSVKGRFTISRDNAKNTLYLQMNSLRSEDTAMYYCAKLISLYWGQGTTLTVSS
VL: DIQMTQSPSSLSASVGDRVTITCKASQDINSYLTWFQQKPGKAPKSLIYRTNRLFDGVPSRFSGSGSGTDFFLTISSLQPEDFATYYCLQYDDFPYTFGQGTKVEIK
notes: also called hAB001HcJ

binding result [9]: binds
B6: RHA/VKc1 (antibody, V domains shown)
VH: EVQLLESGGGLVQPGGSLRLSCAASGFTFSSSAMSWVRQAPGKGLEWVSTISVGGGKTYYPDSVKGRFTISRDNSKNTLYLQMNSLRAEDTAVYYCAKLISLYWGQGTLVTVSS
VL: DIQMTQSPSSMYASLGERVTITCKASQDINSYLTWFQQKPGKSPKTLIYRTNRLFDGVPSRFSGSGSGQDFFLTISSLEYEDMGIYYCLQYDDFPYTFGGGTKLEIK
notes: also called hAB001AKc1

Second part, the binder before the results:

B1: cDC001 chimeric antibody (murine DC1 variable regions) (antibody, human IgG1, V domains shown)
VH: EVQLVESGGGLVKPGGSLKLSCAASGFTLSTHAMSWVRQTPEKRLEWVATISSGGRSTYYPDSVKGRFTISRDNVKNTLYLQLSSLRSEDTAVYFCARLISTYWGQGTTLTVSS
VL: B6 VL with Q3T, M11I, T46I, R50L, T51V, F55V, F71Y, F72A
notes: also called Chimeric DC1
IC50 of enzymatic inhibition, dansylated lysine incorporation into N,N-dimethylated casein [continued), panel C] [1]: 851 pM | IC50 of enzymatic inhibition, dansylated lysine incorporation into N,N-dimethylated casein [panel A] (cynomolgus monkey TG2 [2]): 5860 pM | EC50 [3]: 442 pM | EC50 (cynomolgus monkey TG2 [4]): 418 pM | Kd [5]: < 30 pM | koff [5]: < 1e-05 s⁻¹ | kon [5]: 320000 M⁻¹ s⁻¹ | Kd (cynomolgus monkey TG2 [6]): < 24 pM | koff (cynomolgus monkey TG2 [6]): < 1e-05 s⁻¹ | kon (cynomolgus monkey TG2 [6]): 420000 M⁻¹ s⁻¹

B2: hAB005 (hAB001AJ) humanised AB1 antibody (antibody, V domains shown)
VH: B6 VH
VL: B5 VL
notes: captured by anti-human IgG1 (Fc); also called Heavy Chain version RHA with Light Chain version RKJ
IC50, extracellular TG activity of HK-2 cells, biotin cadaverine incorporation into fibronectin [7]: 71800 pM | IC50 of enzymatic inhibition, dansylated lysine incorporation into N,N-dimethylated casein; 2 batches shown [continued), panel C] [8]: 6870 pM | Kd [5]: < 50 pM | koff [5]: < 1e-05 s⁻¹ | kon [5]: 190000 M⁻¹ s⁻¹ | Kd (cynomolgus monkey TG2 [6]): 240 pM | koff (cynomolgus monkey TG2 [6]): 3.4e-05 s⁻¹ | kon (cynomolgus monkey TG2 [6]): 140000 M⁻¹ s⁻¹

B3: VHc/RKE (antibody, V domains shown)
VH: B5 VH
VL: B5 VL with D1E, Q3V, M4L, F36Y, S46L, L73F, A84G, Q100G, V104L
notes: also called hAB001HcE
binding result [9]: binds

B4: RHA/VKc (antibody, V domains shown)
VH: B6 VH
VL: B6 VL with D1E, Q3V, M4L
notes: also called hAB001AKc
binding result [9]: binds
